Changes are numbered by the printed parent chain.
B1: AbA-CZ (antibody, V domains shown)
VH: EVQLQESGPGLVKPSQTLSLTCTVSGYSISRDFAWNWIRQPPGKGLEWMGYISYNGNTRYQPSLKSRITISRDTSKNQFFLKLNSVTAADTATYYCVTASRGFPYWGQGTLVTVSS
VL: DIQMTQSPSSMSVSVGDRVTITCHSSQDINSNIGWLQQKPGKSFKGLIYHGTNLDDGVPSRFSGSGSGTDYTLTISSLQPEDFATYYCVQYAQFPWTFGGGTKLEIKR
modifications: synthon CZ on reduced interchain Cys
B2: AbA-XW (antibody, V domains shown)
VH: B1 VH
VL: B1 VL
modifications: synthon XW on reduced interchain Cys
B3: AbG-YG (antibody, V domains shown)
VH: B1 VH with R31N, P41L, N55K, F103L
VL: B1 VL with N30T, S31Y, T52A, A92D, Q93E
modifications: synthon YG on reduced interchain Cys
B4: AbG-ZT (antibody, V domains shown)
VH: B1 VH with R31N, P41L, N55K, F103L
VL: B1 VL with N30T, S31Y, T52A, A92D, Q93E
modifications: synthon ZT on reduced interchain Cys
B5: AbK-YY (antibody, V domains shown)
VH: B1 VH with Y105W
VL: B1 VL with N30T, S31Y, I33V, T52S, D56H, A92D, Q93D
modifications: synthon YY on reduced interchain Cys
B6: AbK-YG (antibody, V domains shown)
VH: B1 VH with Y105W
VL: B1 VL with N30T, S31Y, I33V, T52S, D56H, A92D, Q93D
modifications: synthon YG on reduced interchain Cys
B7: AbB-ZZ (antibody, V domains shown)
VH: B1 VH with R31N, N55K, Y105W
VL: B1 VL
modifications: synthon ZZ on reduced interchain Cys
B8: AbA-TX (antibody, V domains shown)
VH: B1 VH
VL: B1 VL
modifications: synthon TX on reduced interchain Cys
B9: AbA-AAD (antibody, V domains shown)
VH: B1 VH
VL: B1 VL
modifications: synthon AAD on reduced interchain Cys
B10: AbB-TV (antibody, V domains shown)
VH: B1 VH with R31N, N55K, Y105W
VL: B1 VL
modifications: synthon TV on reduced interchain Cys
B11: AbG-TX (antibody, V domains shown)
VH: B1 VH with R31N, P41L, N55K, F103L
VL: B1 VL with N30T, S31Y, T52A, A92D, Q93E
modifications: synthon TX on reduced interchain Cys
B12: AbK-TX (antibody, V domains shown)
VH: B1 VH with Y105W
VL: B1 VL with N30T, S31Y, I33V, T52S, D56H, A92D, Q93D
modifications: synthon TX on reduced interchain Cys
B13: AbG-SE (antibody, V domains shown)
VH: B1 VH with R31N, P41L, N55K, F103L
VL: B1 VL with N30T, S31Y, T52A, A92D, Q93E
modifications: synthon SE on reduced interchain Cys
B14: AbG-TV (antibody, V domains shown)
VH: B1 VH with R31N, P41L, N55K, F103L
VL: B1 VL with N30T, S31Y, T52A, A92D, Q93E
modifications: synthon TV on reduced interchain Cys
B15: AbB-ZT (antibody, V domains shown)
VH: B1 VH with R31N, N55K, Y105W
VL: B1 VL
modifications: synthon ZT on reduced interchain Cys
B16: AbK-CZ (antibody, V domains shown)
VH: B1 VH with Y105W
VL: B1 VL with N30T, S31Y, I33V, T52S, D56H, A92D, Q93D
modifications: synthon CZ on reduced interchain Cys
B17: AbK-XW (antibody, V domains shown)
VH: B1 VH with Y105W
VL: B1 VL with N30T, S31Y, I33V, T52S, D56H, A92D, Q93D
modifications: synthon XW on reduced interchain Cys
B18: AbK-ZT (antibody, V domains shown)
VH: B1 VH with Y105W
VL: B1 VL with N30T, S31Y, I33V, T52S, D56H, A92D, Q93D
modifications: synthon ZT on reduced interchain Cys
B19: AbA-KZ (antibody, V domains shown)
VH: B1 VH
VL: B1 VL
modifications: synthon KZ on reduced interchain Cys
B20: AbG-XW (antibody, V domains shown)
VH: B1 VH with R31N, P41L, N55K, F103L
VL: B1 VL with N30T, S31Y, T52A, A92D, Q93E
modifications: synthon XW on reduced interchain Cys
B21: AbK-SR (antibody, V domains shown)
VH: B1 VH with Y105W
VL: B1 VL with N30T, S31Y, I33V, T52S, D56H, A92D, Q93D
modifications: synthon SR on reduced interchain Cys
B22: AbG-AAD (antibody, V domains shown)
VH: B1 VH with R31N, P41L, N55K, F103L
VL: B1 VL with N30T, S31Y, T52A, A92D, Q93E
modifications: synthon AAD on reduced interchain Cys
B23: AbG-ZZ (antibody, V domains shown)
VH: B1 VH with R31N, P41L, N55K, F103L
VL: B1 VL with N30T, S31Y, T52A, A92D, Q93E
modifications: synthon ZZ on reduced interchain Cys
B24: AbG-AAA (antibody, V domains shown)
VH: B1 VH with R31N, P41L, N55K, F103L
VL: B1 VL with N30T, S31Y, T52A, A92D, Q93E
modifications: synthon AAA on reduced interchain Cys
B25: AbB-YG (antibody, V domains shown)
VH: B1 VH with R31N, N55K, Y105W
VL: B1 VL
modifications: synthon YG on reduced interchain Cys
B26: AbB-SR (antibody, V domains shown)
VH: B1 VH with R31N, N55K, Y105W
VL: B1 VL
modifications: synthon SR on reduced interchain Cys
B27: AbG-SR (antibody, V domains shown)
VH: B1 VH with R31N, P41L, N55K, F103L
VL: B1 VL with N30T, S31Y, T52A, A92D, Q93E
modifications: synthon SR on reduced interchain Cys
B28: AbB-AAD (antibody, V domains shown)
VH: B1 VH with R31N, N55K, Y105W
VL: B1 VL
modifications: synthon AAD on reduced interchain Cys
B29: AbG-KZ (antibody, V domains shown)
VH: B1 VH with R31N, P41L, N55K, F103L
VL: B1 VL with N30T, S31Y, T52A, A92D, Q93E
modifications: synthon KZ on reduced interchain Cys
B30: AbA-SE (antibody, V domains shown)
VH: B1 VH
VL: B1 VL
modifications: synthon SE on reduced interchain Cys
B31: AbB-XW (antibody, V domains shown)
VH: B1 VH with R31N, N55K, Y105W
VL: B1 VL
modifications: synthon XW on reduced interchain Cys
B32: AbK-SE (antibody, V domains shown)
VH: B1 VH with Y105W
VL: B1 VL with N30T, S31Y, I33V, T52S, D56H, A92D, Q93D
modifications: synthon SE on reduced interchain Cys
B33: AbB-CZ (antibody, V domains shown)
VH: B1 VH with R31N, N55K, Y105W
VL: B1 VL
modifications: synthon CZ on reduced interchain Cys
B34: AbG-YY (antibody, V domains shown)
VH: B1 VH with R31N, P41L, N55K, F103L
VL: B1 VL with N30T, S31Y, T52A, A92D, Q93E
modifications: synthon YY on reduced interchain Cys
B35: AbB-YY (antibody, V domains shown)
VH: B1 VH with R31N, N55K, Y105W
VL: B1 VL
modifications: synthon YY on reduced interchain Cys
B36: AbK-ZZ (antibody, V domains shown)
VH: B1 VH with Y105W
VL: B1 VL with N30T, S31Y, I33V, T52S, D56H, A92D, Q93D
modifications: synthon ZZ on reduced interchain Cys
B37: AbK-KZ (antibody, V domains shown)
VH: B1 VH with Y105W
VL: B1 VL with N30T, S31Y, I33V, T52S, D56H, A92D, Q93D
modifications: synthon KZ on reduced interchain Cys
B38: AbA-AAA (antibody, V domains shown)
VH: B1 VH
VL: B1 VL
modifications: synthon AAA on reduced interchain Cys
B39: AbA-SR (antibody, V domains shown)
VH: B1 VH
VL: B1 VL
modifications: synthon SR on reduced interchain Cys
B40: AbK-TV (antibody, V domains shown)
VH: B1 VH with Y105W
VL: B1 VL with N30T, S31Y, I33V, T52S, D56H, A92D, Q93D
modifications: synthon TV on reduced interchain Cys
B41: AbG-CZ (antibody, V domains shown)
VH: B1 VH with R31N, P41L, N55K, F103L
VL: B1 VL with N30T, S31Y, T52A, A92D, Q93E
modifications: synthon CZ on reduced interchain Cys
B42: AbA-YG (antibody, V domains shown)
VH: B1 VH
VL: B1 VL
modifications: synthon YG on reduced interchain Cys
B43: AbB-KZ (antibody, V domains shown)
VH: B1 VH with R31N, N55K, Y105W
VL: B1 VL
modifications: synthon KZ on reduced interchain Cys
B44: AbB-SE (antibody, V domains shown)
VH: B1 VH with R31N, N55K, Y105W
VL: B1 VL
modifications: synthon SE on reduced interchain Cys
B45: AbA-YY (antibody, V domains shown)
VH: B1 VH
VL: B1 VL
modifications: synthon YY on reduced interchain Cys
B46: AbB-TX (antibody, V domains shown)
VH: B1 VH with R31N, N55K, Y105W
VL: B1 VL
modifications: synthon TX on reduced interchain Cys

target: human Epidermal Growth Factor Receptor (huEGFR) over-expressed in mcl-1-/- mouse embryonic fibroblasts (human, UniProt P00533 25-1210); experiment: cell-based or functional assay

huEGFR^+ mcl-1^-/- MEF EC50 [nM]	Binder
0.3	B1
32	B2
1	B3
33	B4
47	B5
37	B6
7.4	B7
16	B8
65	B9
2.4	B10
5.3	B11
0.79	B12
24	B13
2.6	B14
8.9	B15
0.1	B16
0.6	B17
0.2	B18
152	B19
19	B20
8.9	B21
108	B22
68	B23

huEGFR^+ mcl-1^-/- MEF EC50 [nM]	Binder
220	B24
3.3	B25
7	B26
7	B27
4.6	B28
96	B29
105	B30
0.65	B31
161	B32
5.9	B33
> 500	B34
51	B35
45	B36
224	B37
220	B38
5.9	B39
0.15	B40
3.4	B41
6.4	B42
55	B43
39	B44
460	B45
11	B46
